Test results reported in the supplement of paper PMC9112550, “Optimization of the antimicrobial peptide Bac7 by deep mutational scanning” (BMC Biology, 2022).

The sequences below were run on Escherichia coli TOP10 (assay: shrunken log2 fold change of peptide-encoding DNA abundance (4.5 h post-induction vs induction); higher = less antimicrobial activity (less host growth inhibition)). Conditions: time post-induction: 4.5 h; library: site-saturation at positions 5, 18, 19, 20.
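Further: peptides expressed intracellularly from a pBAD plasmid library in pooled LB shake-flask culture, induced with 0.3% L-arabinose, DNA abundance read by NGS, three biological replicates, DESeq2 with apeglm shrinkage.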

In order of rising “shrunken log2 fold change” value:
1. RRIRIRPPRLPRPRPRPYMMPRP  -1.26
2. RRIRERPPRLPRPRPRPNSNPRP  -0.828
3. RRIRSRPPRLPRPRPRPQYMPRP  -0.695
4. RRIRCRPPRLPRPRPRPFVVPRP  -0.633
5. RRIRYRPPRLPRPRPRPQHRPRP  -0.602
6. RRIRIRPPRLPRPRPRPKNMPRP  -0.577
7. RRIRVRPPRLPRPRPRPNSGPRP  -0.496
8. RRIRNRPPRLPRPRPRPDINPRP  -0.482
9. RRIRHRPPRLPRPRPRPCFHPRP  -0.48
10. RRIRDRPPRLPRPRPRPPYMPRP  -0.464
11. RRIRFRPPRLPRPRPRPVLYPRP  -0.457
12. RRIRERPPRLPRPRPRPYLWPRP  -0.431
13. RRIRYRPPRLPRPRPRPYMVPRP  -0.386
14. RRIRYRPPRLPRPRPRPWAQPRP  -0.37
15. RRIRSRPPRLPRPRPRPNMGPRP  -0.351
16. RRIRFRPPRLPRPRPRPQRNPRP  -0.323
17. RRIRYRPPRLPRPRPRPAYHPRP  -0.321
18. RRIRLRPPRLPRPRPRPHRNPRP  -0.319
19. RRIRYRPPRLPRPRPRPLAMPRP  -0.311
20. RRIRPRPPRLPRPRPRPTVIPRP  -0.28
21. RRIRTRPPRLPRPRPRPCIYPRP  -0.264
22. RRIRHRPPRLPRPRPRPWKYPRP  -0.253
23. RRIRYRPPRLPRPRPRPVNDPRP  -0.24
24. RRIRLRPPRLPRPRPRPQVGPRP  -0.203
25. RRIRHRPPRLPRPRPRPYNMPRP  -0.186
26. RRIRQRPPRLPRPRPRPIYHPRP  -0.179
27. RRIRIRPPRLPRPRPRPSWVPRP  -0.168
28. RRIRRRPPRLPRPRPRPSSWPRP  -0.162
29. RRIRNRPPRLPRPRPRPVCTPRP  -0.157
30. RRIRIRPPRLPRPRPRPVACPRP  -0.154
31. RRIRCRPPRLPRPRPRPLGRPRP  -0.151
32. RRIRTRPPRLPRPRPRPFRTPRP  -0.146
33. RRIRPRPPRLPRPRPRPGNQPRP  -0.143
34. RRIRPRPPRLPRPRPRPNMTPRP  -0.13
35. RRIRMRPPRLPRPRPRPQMIPRP  -0.0999
36. RRIRGRPPRLPRPRPRPDYMPRP  -0.0973
37. RRIRRRPPRLPRPRPRPQMVPRP  -0.0843
38. RRIRDRPPRLPRPRPRPFYVPRP  -0.0754
39. RRIRQRPPRLPRPRPRPLLRPRP  -0.0709
40. RRIRFRPPRLPRPRPRPWVTPRP  -0.0635
41. RRIRDRPPRLPRPRPRPWVTPRP  -0.0629
42. RRIRYRPPRLPRPRPRPAASPRP  -0.0616
43. RRIRWRPPRLPRPRPRPHPHPRP  -0.0616
44. RRIRIRPPRLPRPRPRPRLTPRP  -0.0559
45. RRIRERPPRLPRPRPRPEKGPRP  -0.0493
46. RRIRARPPRLPRPRPRPKYGPRP  -0.0411
47. RRIRVRPPRLPRPRPRPGNDPRP  -0.0387
48. RRIRDRPPRLPRPRPRPMPHPRP  -0.0342
49. RRIRTRPPRLPRPRPRPTIQPRP  -0.0327
50. RRIRVRPPRLPRPRPRPEIAPRP  -0.0307
51. RRIRRRPPRLPRPRPRPWERPRP  -0.0262
52. RRIRDRPPRLPRPRPRPDNEPRP  -0.0213
53. RRIRERPPRLPRPRPRPGISPRP  -0.017
54. RRIRVRPPRLPRPRPRPWSMPRP  -0.014
55. RRIRIRPPRLPRPRPRPVLAPRP  -0.0133
56. RRIRNRPPRLPRPRPRPCQQPRP  -0.0105
57. RRIRTRPPRLPRPRPRPCRWPRP  -0.00822
58. RRIRVRPPRLPRPRPRPNEFPRP  -0.00739
59. RRIRLRPPRLPRPRPRPNGIPRP  -0.00731
60. RRIRSRPPRLPRPRPRPQHFPRP  -0.00646
61. RRIRYRPPRLPRPRPRPHFPPRP  -0.00195
62. RRIRDRPPRLPRPRPRPGTLPRP  -0.00146
63. RRIRERPPRLPRPRPRPYAYPRP  -0.000687
64. RRIRNRPPRLPRPRPRPSMDPRP  0.00334
65. RRIRTRPPRLPRPRPRPLQAPRP  0.00547
66. RRIRVRPPRLPRPRPRPMKTPRP  0.00695
67. RRIRMRPPRLPRPRPRPWVQPRP  0.015
68. RRIRDRPPRLPRPRPRPDVLPRP  0.0169
69. RRIRERPPRLPRPRPRPYQAPRP  0.019
70. RRIRNRPPRLPRPRPRPHPNPRP  0.0207
71. RRIRLRPPRLPRPRPRPFWAPRP  0.0214
72. RRIRGRPPRLPRPRPRPDNDPRP  0.0238
73. RRIRCRPPRLPRPRPRPAICPRP  0.0424
74. RRIRPRPPRLPRPRPRPVEGPRP  0.0448
75. RRIRERPPRLPRPRPRPIFSPRP  0.0654
76. RRIRPRPPRLPRPRPRPQWVPRP  0.0693
77. RRIRVRPPRLPRPRPRPEEDPRP  0.0704
78. RRIRWRPPRLPRPRPRPLGTPRP  0.0928
79. RRIRNRPPRLPRPRPRPWGTPRP  0.0962
80. RRIRPRPPRLPRPRPRPNTKPRP  0.0992
81. RRIRLRPPRLPRPRPRPMFWPRP  0.145
82. RRIRFRPPRLPRPRPRPVEKPRP  0.149
83. RRIRLRPPRLPRPRPRPFFQPRP  0.152
84. RRIRMRPPRLPRPRPRPHGQPRP  0.155
85. RRIRMRPPRLPRPRPRPKIQPRP  0.158
86. RRIRKRPPRLPRPRPRPFETPRP  0.163
87. RRIRSRPPRLPRPRPRPMEWPRP  0.199
88. RRIRKRPPRLPRPRPRPIFDPRP  0.205
89. RRIRPRPPRLPRPRPRPDYWPRP  0.207
90. RRIRDRPPRLPRPRPRPEHVPRP  0.212
91. RRIRRRPPRLPRPRPRPWRGPRP  0.215
92. RRIRMRPPRLPRPRPRPFCFPRP  0.222
93. RRIRWRPPRLPRPRPRPGWNPRP  0.238
94. RRIRYRPPRLPRPRPRPRMSPRP  0.256
95. RRIRGRPPRLPRPRPRPVIMPRP  0.258
96. RRIRSRPPRLPRPRPRPHAPPRP  0.27
97. RRIRPRPPRLPRPRPRPAPDPRP  0.309
98. RRIRWRPPRLPRPRPRPCGWPRP  0.314
99. RRIRARPPRLPRPRPRPATGPRP  0.318
100. RRIRFRPPRLPRPRPRPANMPRP  0.321
101. RRIRWRPPRLPRPRPRPRSRPRP  0.385
102. RRIRLRPPRLPRPRPRPAQDPRP  0.392
103. RRIRPRPPRLPRPRPRPRWFPRP  0.405
104. RRIRDRPPRLPRPRPRPRSDPRP  0.514
105. RRIRGRPPRLPRPRPRPMAVPRP  0.773
106. RRIRRRPPRLPRPRPRPLTWPRP  0.845
107. RRIRMRPPRLPRPRPRPAEFPRP  1.15
108. RRIRGRPPRLPRPRPRPPPCPRP  1.16
109. RRIRMRPPRLPRPRPRPTQTPRP  2.06
